In patent US20080020978A1 (Amgen, published 2008):
Square brackets hold non-standard residues; d marks the D form. Ends that are not written are not given here. Igl = N[C@H](C(=O)O)C1Cc2ccccc2C1; hArg = N=C(N)NCCCC[C@H](N)C(=O)O; Cit = NC(=O)NCCC[C@H](N)C(=O)O; Phg = N[C@H](C(=O)O)c1ccccc1; Ahx = NCCCCCC(=O)O

target: CGRP1 receptor (CRLR/RAMP1 complex) of human neuroblastoma SK-N-MC cells (human, UniProt Q16602 23-461; O60894 27-148); assay: cell-based or functional assay
Sequence (Q16602 23-461, chain 1 of 2): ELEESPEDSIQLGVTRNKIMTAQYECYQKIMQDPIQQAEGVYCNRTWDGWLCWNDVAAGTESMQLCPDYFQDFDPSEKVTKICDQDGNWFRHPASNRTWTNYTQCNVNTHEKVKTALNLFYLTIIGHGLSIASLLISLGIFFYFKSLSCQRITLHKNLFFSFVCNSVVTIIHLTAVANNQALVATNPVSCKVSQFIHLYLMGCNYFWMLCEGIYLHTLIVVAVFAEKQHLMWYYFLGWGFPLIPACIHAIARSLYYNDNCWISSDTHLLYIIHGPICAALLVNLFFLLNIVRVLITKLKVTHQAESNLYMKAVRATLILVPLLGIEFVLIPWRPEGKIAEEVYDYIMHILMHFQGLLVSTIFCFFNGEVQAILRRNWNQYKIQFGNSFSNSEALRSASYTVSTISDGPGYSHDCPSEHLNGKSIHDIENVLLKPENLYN
Sequence (O60894 27-148, chain 2 of 2): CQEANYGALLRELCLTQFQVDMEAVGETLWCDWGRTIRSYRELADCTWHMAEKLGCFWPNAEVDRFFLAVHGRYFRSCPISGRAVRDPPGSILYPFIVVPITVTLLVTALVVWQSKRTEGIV

| Binder | Peptide IC50 [nM] | PEG-peptide IC50 [nM] |
| --- | --- | --- |
| C[Ahx]WVTHRLAGLLSRSGGVVRKNFVPTDVGPFAF-NH2 (N-terminus assumed; SMILES CC(C)C[C@H](NC(=O)CNC(=O)[C@H](C)NC(=O)[C@H](CC(C)C)NC(=O)[C@H](CCCNC(=N)N)NC(=O)[C@H](Cc1c[nH]cn1)NC(=O)[C@@H](NC(=O)[C@@H](NC(=O)[C@H](Cc1c[nH]c2ccccc12)NC(=O)CCCCCNC(=O)[C@@H](N)CS)C(C)C)[C@@H](C)O)C(=O)N[C@@H](CC(C)C)C(=O)N[C@@H](CO)C(=O)N[C@@H](CCCNC(=N)N)C(=O)N[C@@H](CO)C(=O)NCC(=O)NCC(=O)N[C@H](C(=O)N[C@H](C(=O)N[C@@H](CCCNC(=N)N)C(=O)N[C@@H](CCCCN)C(=O)N[C@@H](CC(N)=O)C(=O)N[C@@H](Cc1ccccc1)C(=O)N[C@H](C(=O)N1CCC[C@H]1C(=O)N[C@H](C(=O)N[C@@H](CC(=O)O)C(=O)N[C@H](C(=O)NCC(=O)N1CCC[C@H]1C(=O)N[C@@H](Cc1ccccc1)C(=O)N[C@@H](C)C(=O)N[C@@H](Cc1ccccc1)C(N)=O)C(C)C)[C@@H](C)O)C(C)C)C(C)C)C(C)C) [SEQ ID NO 916] | 1.8 |  |
| Ac-WVTHRLAGLLSRSGGVVRKNFVPTDVGPKAF-NH2 [SEQ ID NO 917] | 1 |  |
| Ac-WVTH[Cit]LAGLLS[Cit]SGGVVRKNFVPTDVGPKAF-NH2 (SMILES CC(=O)N[C@@H](Cc1c[nH]c2ccccc12)C(=O)N[C@H](C(=O)N[C@H](C(=O)N[C@@H](Cc1c[nH]cn1)C(=O)N[C@@H](CCCNC(N)=O)C(=O)N[C@@H](CC(C)C)C(=O)N[C@@H](C)C(=O)NCC(=O)N[C@@H](CC(C)C)C(=O)N[C@@H](CC(C)C)C(=O)N[C@@H](CO)C(=O)N[C@@H](CCCNC(N)=O)C(=O)N[C@@H](CO)C(=O)NCC(=O)NCC(=O)N[C@H](C(=O)N[C@H](C(=O)N[C@@H](CCCNC(=N)N)C(=O)N[C@@H](CCCCN)C(=O)N[C@@H](CC(N)=O)C(=O)N[C@@H](Cc1ccccc1)C(=O)N[C@H](C(=O)N1CCC[C@H]1C(=O)N[C@H](C(=O)N[C@@H](CC(=O)O)C(=O)N[C@H](C(=O)NCC(=O)N1CCC[C@H]1C(=O)N[C@@H](CCCCN)C(=O)N[C@@H](C)C(=O)N[C@@H](Cc1ccccc1)C(N)=O)C(C)C)[C@@H](C)O)C(C)C)C(C)C)C(C)C)[C@@H](C)O)C(C)C) [SEQ ID NO 918] | 1.48 |  |
| WVTHXLAGLLSXSGGVVXKNXVPTDVGPXAF (Ac-WVTH[Cit]LAGLLS[Cit]SGGVV[hArg]KN[pI-Phe]VPTDVGP[pI-Phe]AF-NH2) [SEQ ID NO 928] | 1.16 |  |
| WVTHXLAGLLSXSGGVVXKNXVPTDVGPXAF (Ac-WVTH[Cit]LAGLLS[Cit]SGGVV[hArg]KN[pI-Phe]VPTDVGP[pI-Phe]AF-NH2; PEG-conjugated (Table 2C: in most cases at Lys^25)) [PEG-peptide of SEQ ID NO 928] |  | 11.4 |
| Ac-WVTH[Cit]LAGLLS[Cit]SGGVV[hArg]KNFVPTDVGP[Igl]AF-NH2 [SEQ ID NO 930] | 4.58 |  |
| Ac-WVTH[Cit]LAGLLS[Cit]SGGVV[hArg]KNFVPTDVGP[Igl]AF-NH2 (also: PEG-conjugated, in most cases at Lys25) [PEG-peptide of SEQ ID NO 930] |  | 126 |
| WVTHXLAGLLSXSGGVVRKNFVPTDVGXFAF (Ac-WVTH[Cit]LAGLLS[Cit]SGGVVRKNFVPTDVG[Oic]FAF-NH2) [SEQ ID NO 920] | 0.85 |  |
| WVTHXLAGLLSXSGGVVXKNFVPTDVGPXAF (Ac-WVTH[Cit]LAGLLS[Cit]SGGVV[hArg]KNFVPTDVGP[1-Nal]AF-NH2; PEG-conjugated (Table 2C: in most cases at Lys^25)) [PEG-peptide of SEQ ID NO 927] |  | 2.54 |
| WVTHXLAGLLSXSGGVVXKNFVPTDVGPXAF (Ac-WVTH[Cit]LAGLLS[Cit]SGGVV[hArg]KNFVPTDVGP[Bip]AF-NH2; PEG-conjugated (Table 2C: in most cases at Lys^25)) [PEG-peptide of SEQ ID NO 929] |  | 5.58 |
| WVTHXLAGLLSXSGGVVXKNFVPTDVGPXAF (Ac-WVTH[hArg]LAGLLS[Cit]SGGVV[hArg]KNFVPTDVGP[2-Nal]AF-NH2) [SEQ ID NO 926] | 0.88 |  |
| WVTHXLAGLLSXSGGVVXKNFVPTDVGPFAF (Ac-WVTH[Cit]LAGLLS[hArg]SGGVV[BhArg]KNFVPTDVGPFAF-NH2) [SEQ ID NO 936] | 2.41 |  |
| WVTHXLAGLLSXSGGVVRKNFVPTDVGPFAX (Ac-WVTH[Cit]LAGLLS[Cit]SGGVVRKNFVPTDVGPFA[pI-Phe]-NH2) [SEQ ID NO 923] | 2.24 |  |
| WVTHXLAGLLSXSGGVVXKNFVPTDVGPXAF (Ac-WVTH[Cit]LAGLLS[Cit]SGGVV[hArg]KNFVPTDVGP[1-Nal]AF-NH2) [SEQ ID NO 927] | 1.28 |  |
| WVTHXLAGLLSXSGGVVXKNFVPTDVGXXAF (Ac-WVTH[Cit]LAGLLS[Cit]SGGVV[hArg]KNFVPTDVG[Oic][1-Nal]AF-NH2) [SEQ ID NO 933] | 0.88 |  |
| WVTHXLAGLLSXSGGVVXKNFVPTDVGPXAF (Ac-WVTH[Cit]LAGLLS[Cit]SGGVV[hArg]KNFVPTDVGP[Bip]AF-NH2) [SEQ ID NO 929] | 1.76 |  |
| WVTHXLAGLLSXSGGVVXKNFVPTDVGPFAF (Ac-WVTH[Cit]LAGLLS[hArg]SGGVV[Guf]KNFVPTDVGPFAF-NH2) [SEQ ID NO 935] | 2.37 |  |
| WVTHXLAGLLSXSGGVVRKNFVXTDVGXFAF (Ac-WVTH[Cit]LAGLLS[Cit]SGGVVRKNFV[Oic]TDVG[Oic]FAF-NH2) [SEQ ID NO 921] | 0.93 |  |
| WVTHXLAGLLSXSGGVVXKNFVPTDVGPXAF (Ac-WVTH[hArg]LAGLLS[Cit]SGGVV[hArg]KNFVPTDVGP[2-Nal]AF-NH2; PEG-conjugated (Table 2C: in most cases at Lys^25)) [PEG-peptide of SEQ ID NO 926] |  | 2.39 |
| WVTHXLAGLLSXSGGVVXKNFVPTDVGPXAF (Ac-WVTH[hArg]LAGLLS[Cit]SGGVV[hArg]KNFVPTDVGP[1-Nal]AF-NH2) [SEQ ID NO 924] | 2.18 |  |
| WVTHXLAGLLSXSGGVVXKNFVPTDVGXXAF (Ac-WVTH[Cit]LAGLLS[Cit]SGGVV[hArg]KNFVPTDVG[Oic][2-Nal]AF-NH2) [SEQ ID NO 934] | 1.65 |  |
| WVTHXLAGLLSXSGGVVRKNXVPTDVGPFAX (Ac-WVTH[Cit]LAGLLS[Cit]SGGVVRKN[pI-Phe]VPTDVGPFA[pI-Phe]-NH2) [SEQ ID NO 922] | 2.21 |  |
| WVTHXLAGLLSXSGGVVXKNFVPTDVGPFAF (Ac-WVTH[Cit]LAGLLS[Cit]SGGVV[Cit]KNFVPTDVGPFAF-NH2) [SEQ ID NO 937] | 2.87 |  |
| WVTHXLAGLLSXSGGVVXKNFVXTDVGXFAF (Ac-WVTH[Cit]LAGLLS[Cit]SGGVV[hArg]KNFV[Oic]TDVG[Oic]FAF-NH2) [SEQ ID NO 932] | 1.31 |  |
| Ac-WVTH[hArg]LAGLLS[Cit]SGGVV[hArg]KNFVPTDVGPFA[Phg]-NH2 (SMILES CC(=O)N[C@@H](Cc1c[nH]c2ccccc12)C(=O)N[C@H](C(=O)N[C@H](C(=O)N[C@@H](Cc1c[nH]cn1)C(=O)N[C@@H](CCCCNC(=N)N)C(=O)N[C@@H](CC(C)C)C(=O)N[C@@H](C)C(=O)NCC(=O)N[C@@H](CC(C)C)C(=O)N[C@@H](CC(C)C)C(=O)N[C@@H](CO)C(=O)N[C@@H](CCCNC(N)=O)C(=O)N[C@@H](CO)C(=O)NCC(=O)NCC(=O)N[C@H](C(=O)N[C@H](C(=O)N[C@@H](CCCCNC(=N)N)C(=O)N[C@@H](CCCCN)C(=O)N[C@@H](CC(N)=O)C(=O)N[C@@H](Cc1ccccc1)C(=O)N[C@H](C(=O)N1CCC[C@H]1C(=O)N[C@H](C(=O)N[C@@H](CC(=O)O)C(=O)N[C@H](C(=O)NCC(=O)N1CCC[C@H]1C(=O)N[C@@H](Cc1ccccc1)C(=O)N[C@@H](C)C(=O)N[C@H](C(N)=O)c1ccccc1)C(C)C)[C@@H](C)O)C(C)C)C(C)C)C(C)C)[C@@H](C)O)C(C)C) [SEQ ID NO 925] | 6.78 |  |
